Measurements reported in paper PMC5357137.

Assays:
[1] = tested on: MuA transposase in cleaved-donor complex (CDC, WT transpososome) (bacteriophage Mu); test: fluorescence anisotropy; settings: Mg2+, CDC with 3'ddA Mu ends, Anisotropy: purified CDCs diluted in reaction buffer with MgCl2 (+/- DMSO; concentrations, salt and pH not in material), 6 nM Atto565 target DNA, 1 h, room …
[2] = tested on: MuA delta domain III (catalytic subunits of delta domain III CDC);SinMu chimera (non-catalytic subunits) (bacteriophage Mu;bacteriophage Mu; Sin recombinase (organism not stated)); test: fluorescence anisotropy; settings: Mg2+, DMSO; CDC with 3'ddA Mu ends; single G:G mismatch at center; Anisotropy: purified CDCs diluted in reaction buffer with MgCl2 (+/- DMSO; concentrations, salt and pH not in material), 6 nM Atto565 target DNA, 1 h, room …

target DNA with central G:G mismatch, 35 bp
Kd ([1]; DMSO, Hill coefficient 2.6, single G:G mismatch at center): 15 nM
Kd ([1]; no DMSO, Hill coefficient 3.3, single G:G mismatch at center): 15 nM
Kd [2]: 38 nM

target DNA, fully base paired, 35 bp
Kd ([1]; DMSO): 29 nM
